Non-standard residues stand in square brackets, D forms with d. Primed or numbered codes have the meaning given here. No end group written: not given here. PEG12″ = PEG12 group on the N-terminal Lys

Holding throughout (experiment): cell-based or functional assay
Assay [1] concerns the target T1, Apelin Receptor (APJ) stably overexpressed in CHO-K1 AGTRL1 Gi cells (human, UniProt P35414 1-380).
T1 sequence (looked up): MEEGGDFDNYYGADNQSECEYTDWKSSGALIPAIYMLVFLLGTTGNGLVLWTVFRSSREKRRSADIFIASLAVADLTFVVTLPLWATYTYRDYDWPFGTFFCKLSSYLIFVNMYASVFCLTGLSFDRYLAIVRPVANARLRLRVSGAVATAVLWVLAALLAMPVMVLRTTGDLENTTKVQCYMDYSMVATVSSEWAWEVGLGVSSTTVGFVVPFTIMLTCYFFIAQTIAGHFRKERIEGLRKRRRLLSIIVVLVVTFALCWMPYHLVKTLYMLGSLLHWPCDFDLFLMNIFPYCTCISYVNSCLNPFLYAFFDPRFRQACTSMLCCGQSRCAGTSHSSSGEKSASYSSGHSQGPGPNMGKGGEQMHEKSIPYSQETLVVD

Assay [2] has as its target ProLink tagged human APJ (Apelin Receptor) in CHO-K1 AGTRL1 β-Arrestin cells (human, UniProt P35414 1-380).
For assay [3], the target named is T1, Apelin Receptor (APJ) stably …. The source holds these as a separate data set.

Consider MRRMMGMVFQCLCGL [SEQ ID NO 7], for which the “cAMP levels, Percent of Pyr-Apelin-13 Control Activity (10 µM peptide, 10 µM forskolin)” value (“cAMP levels, Percent” for short) in assay [1] was 109 % of Pyr-Apelin-13 control. The “β-Arrestin recruitment, Percent of Apelin-13 Control Activity (10 µM peptide)” value (shortened to “β-Arrestin recruitment, Percent”) in assay [2] was 91 % of Apelin-13 control. Further, the “IC50, inhibition of forskolin-stimulated cAMP accumulation” value (“IC50, inhibition” below) in assay [3] came out at 1.24 µM.
Taken in the same sequence, the figures for [PEG12″]KRRIIGIVFQCLCG[dA] (cysteine pairing not given here) [SEQ ID NO 42] were 33 % of Pyr-Apelin-13 control, 8 % of Apelin-13 control and 4.38 µM.
For MMGMVFQSL [SEQ ID NO 48], the “cAMP levels, Percent” value in assay [1] is 15 % of Pyr-Apelin-13 control. Further, the “β-Arrestin recruitment, Percent” value in assay [2] was 1 % of Apelin-13 control.
For RRMMGMVFQELCG[dA] [SEQ ID NO 13], in assay [1], the “cAMP levels, Percent” value was 49 % of Pyr-Apelin-13 control. In assay [2], the “β-Arrestin recruitment, Percent” value was 1 % of Apelin-13 control.
Turning to RRIIGIVFQSLCG[dA] [SEQ ID NO 43], the “IC50, inhibition” value in assay [3] turned out to be 2.07 µM.
Turning to RRMMGMVEQCLCG[dA] (cysteine pairing not given here) [SEQ ID NO 12], the “cAMP levels, Percent” value in assay [1] is 24 % of Pyr-Apelin-13 control. The “β-Arrestin recruitment, Percent” value in assay [2] is -1 % of Apelin-13 control.
Turning to KRRLLGLVFQSLCGA ((PEG12) on the N-terminal K (position 1); (dA) D-alanine at position 15) [SEQ ID NO 37], in assay [1], the “cAMP levels, Percent” value is 53 % of Pyr-Apelin-13 control. In addition, the “β-Arrestin recruitment, Percent” value in assay [2] was 12 % of Apelin-13 control. In assay [3], the “IC50, inhibition” value is 2.5 µM.
In the case of RRMMGMVFQCLEG[dA] [SEQ ID NO 14], the “cAMP levels, Percent” value in assay [1] was 39 % of Pyr-Apelin-13 control. The “β-Arrestin recruitment, Percent” value in assay [2] was 0 % of Apelin-13 control.
Consider KRRMMGMVFQSLCGA ((PEG12) on the N-terminal K (position 1); (dA) D-alanine at position 15) [SEQ ID NO 36], for which, in assay [1], the “cAMP levels, Percent” value is 101 % of Pyr-Apelin-13 control. Further, the “β-Arrestin recruitment, Percent” value in assay [2] is 63 % of Apelin-13 control. For the same molecule, the “IC50, inhibition” value in assay [3] is 1.6 µM.
In the case of MMGMVFQSLCG[dA] [SEQ ID NO 49], the “cAMP levels, Percent” value in assay [1] was 14 % of Pyr-Apelin-13 control. Besides, the “β-Arrestin recruitment, Percent” value in assay [2] was 1 % of Apelin-13 control.
Consider RRMMGMVFQSLCG[dA] [SEQ ID NO 15], for which the “cAMP levels, Percent” value in assay [1] was 105 % of Pyr-Apelin-13 control. For the same molecule, the “β-Arrestin recruitment, Percent” value in assay [2] was 40 % of Apelin-13 control. Besides, the “IC50, inhibition” value in assay [3] came to 4.49 µM.
On to RRMMGMVAQCLCG[dA] (cysteine pairing not given here) [SEQ ID NO 11], for which the “cAMP levels, Percent” value in assay [1] is 49 % of Pyr-Apelin-13 control. In assay [2], the “β-Arrestin recruitment, Percent” value was 0 % of Apelin-13 control.

These data come from patent publication US20220324909A1 (COHBAR, published 2022).
